Assay results as given in patent EP4682166A1 (Guangzhou Enmai Biotechnology Co., Ltd, dated 2026).

Key:
[1] = target: T1, human NMI (N-myc Interacting protein) (human, UniProt Q13287 1-307, limits assumed); assay: indirect ELISA, human NMI coated; supernatant 1/6561
T1 construct: Immunogen and ELISA coating antigen; also called hNMI; antigen 1
T1 sequence (looked up): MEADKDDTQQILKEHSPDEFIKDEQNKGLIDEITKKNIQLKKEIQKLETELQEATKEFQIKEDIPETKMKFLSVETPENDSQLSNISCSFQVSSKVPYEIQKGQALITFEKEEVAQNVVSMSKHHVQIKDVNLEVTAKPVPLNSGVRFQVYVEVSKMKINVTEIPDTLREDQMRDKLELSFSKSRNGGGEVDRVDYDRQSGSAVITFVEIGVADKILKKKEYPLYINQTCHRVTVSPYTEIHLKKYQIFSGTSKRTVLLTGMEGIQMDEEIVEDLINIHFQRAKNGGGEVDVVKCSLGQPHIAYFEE

[2] = target: T1, human NMI (N-myc Interacting protein); assay: indirect ELISA, human NMI coated; supernatant 1/3
[3] = target: T1, human NMI (N-myc Interacting protein); assay: I-ELISA, hNMI coated 1 ug/mL; antibody 78.125 ng/mL
[4] = target: T1, human NMI (N-myc Interacting protein); assay: I-ELISA, hNMI coated 1 ug/mL; antibody 156.25 ng/mL
[5] = target: T1, human NMI (N-myc Interacting protein); assay: indirect ELISA, human NMI coated (repeats Table 1)
[6] = target: T1, human NMI (N-myc Interacting protein); assay: I-ELISA, hNMI coated 1 ug/mL; antibody 625 ng/mL
[7] = target: T1, human NMI (N-myc Interacting protein); assay: I-ELISA, hNMI coated 1 ug/mL; antibody 4.8828125 ng/mL
[8] = target: T1, human NMI (N-myc Interacting protein); assay: I-ELISA, hNMI coated 1 ug/mL; antibody 2500 ng/mL
[9] = target: T1, human NMI (N-myc Interacting protein); assay: indirect ELISA, human NMI coated; supernatant 1/19683
[10] = target: T1, human NMI (N-myc Interacting protein); assay: I-ELISA, hNMI coated 1 ug/mL; antibody 2.4414063 ng/mL
[11] = target: T1, human NMI (N-myc Interacting protein); assay: indirect ELISA, human NMI coated; supernatant 1/729
[12] = target: T1, human NMI (N-myc Interacting protein); assay: I-ELISA, hNMI coated 1 ug/mL; antibody 39.0625 ng/mL
[13] = target: T1, human NMI (N-myc Interacting protein); assay: indirect ELISA, human NMI coated; supernatant 1/27
[14] = target: T1, human NMI (N-myc Interacting protein); assay: sandwich ELISA; coating antibody 2.5 ug/mL, detection 94C4-biotin 0.5 ug/mL
[15] = target: T1, human NMI (N-myc Interacting protein); assay: indirect ELISA, human NMI coated; supernatant 1/59049
[16] = target: T1, human NMI (N-myc Interacting protein); assay: indirect ELISA, human NMI coated; supernatant undiluted
[17] = target: T1, human NMI (N-myc Interacting protein); assay: indirect ELISA, human NMI coated; supernatant 1/9
[18] = target: T1, human NMI (N-myc Interacting protein); assay: I-ELISA, hNMI coated 1 ug/mL; antibody 1250 ng/mL
[19] = target: T1, human NMI (N-myc Interacting protein); assay: I-ELISA, hNMI coated 1 ug/mL; antibody 19.53125 ng/mL
[20] = target: T1, human NMI (N-myc Interacting protein); assay: indirect ELISA, human NMI coated; supernatant dilution series
[21] = target: T1, human NMI (N-myc Interacting protein); assay: I-ELISA, hNMI coated; upper end of the group's range, tied to 98G10 by Table 17
[22] = target: T1, human NMI (N-myc Interacting protein); assay: I-ELISA, hNMI coated 1 ug/mL; antibody 9.765625 ng/mL
[23] = target: T1, human NMI (N-myc Interacting protein); assay: indirect ELISA, human NMI coated; supernatant 1/243
[24] = target: T1, human NMI (N-myc Interacting protein); assay: indirect ELISA, human NMI coated; supernatant 1/81
[25] = target: T1, human NMI (N-myc Interacting protein); assay: I-ELISA, hNMI coated 1 ug/mL; antibody 1.2207031 ng/mL
[26] = target: T1, human NMI (N-myc Interacting protein); assay: I-ELISA, hNMI coated 1 ug/mL; antibody 312.5 ng/mL
[27] = target: T1, human NMI (N-myc Interacting protein); assay: indirect ELISA, human NMI coated; supernatant 1/2187
[28] = target: T1, human NMI (N-myc Interacting protein); assay: I-ELISA, hNMI coated; lower end of the group's range, tied to 94C4 by Table 17

B1: 98G10 (antibody, V domains shown)
VH: QEQLEESGGDLVKPEGSLTLTCTASGFSFSASYWICWVRQAPGKGLEWIACIYGGSSGSAYYASWAKGRFTISKTSSTTVTLQMTSLTAADTATYFCARAGYYNYGSAGDIYPSSFKLWGPGTLVTVSS
VL: DIVMTQTPASVEAAVGGTVTINCQASQSISTALAWYQQKPGQPPKLLIYTASKVASGVPSRFSGSGSGTQFTLTISDLECADAATYYCQNYYYSSSSITFGGGTEVVVK
notes: Rabbit monoclonal antibody; also called 98G10-1; 98G10-1-biotin (biotin-labelled form)
Q: Which results are given for B1?
A: ELISA OD [1]: 1.07 OD; ELISA OD [2]: 3.45 OD; OD450 [3]: 1.18 OD450; OD450 [4]: 1.71 OD450; EC50 [5]: 1.22 ng/mL; OD450 [6]: 2.08 OD450; OD450 [7]: 0.115 OD450; OD450 [8]: 2.17 OD450; ELISA OD [9]: 0.528 OD; OD450 [10]: 0.081 OD450; ELISA OD [11]: 2.48 OD; OD450 [12]: 0.67 OD450; ELISA OD [13]: 3.32 OD; detection limit (sensitivity) [14]: 60 pg/mL; ELISA OD [15]: 0.237 OD; ELISA OD [16]: 3.45 OD; ELISA OD [17]: 3.39 OD; OD450 [18]: 2.15 OD450; OD450 [19]: 0.41 OD450; EC50 [20]: 1.22 ng/mL; EC50 [21]: 70 ng/mL; OD450 [22]: 0.217 OD450; ELISA OD [23]: 2.97 OD; ELISA OD [24]: 3.29 OD; OD450 [25]: 0.065 OD450; OD450 [26]: 1.97 OD450; ELISA OD [27]: 1.72 OD

B2: 94C4 (antibody, V domains shown)
VH: QSLEESGGGLVQPEGSLTLTCKASGFDFSSNAMCWVRQAPGKGLEWIACISSASSGSSGSTYYASWAKGRFTISKTSSTTVTLQMTSLTAADMATYFCARDGYDLWGPGTLVTVSS
VL: QVLTQTPSSVSAAVGGTVTISCQSSPSVYNNYLSWFQQKPGQSPKLLIYRVSTLASGVPSRFSGSGSGTQFTLTISGVQCDDAATYYCAGGYDSASDTYVFGGGTEVVVK
notes: Rabbit monoclonal antibody; also called 94C4-1; 94C4-1-biotin (biotin-labelled form)
Q: For B2, which “ELISA OD” value [1] is on record?
A: 2.15 OD

Q: What about the “ELISA OD” value [2] of the same binder?
A: 3.5 OD

Q: And the OD450 [3]?
A: 1.64 OD450

Q: And the OD450 [4]?
A: 1.93 OD450

Q: What about the EC50 [5] of the same binder?
A: 0.189 ng/mL

Q: And the OD450 [6]?
A: 2.19 OD450

Q: And the OD450 [7]?
A: 0.262 OD450

Q: What about the OD450 [8] of the same binder?
A: 2.17 OD450

Q: And the “ELISA OD” value [9]?
A: 1.28 OD

Q: What about the OD450 [10] of the same binder?
A: 0.142 OD450

Q: What about the “ELISA OD” value [11] of the same binder?
A: 2.98 OD

Q: And the OD450 [12]?
A: 1.22 OD450

Q: What about the “ELISA OD” value [13] of the same binder?
A: 3.47 OD

Q: And the “ELISA OD” value [15]?
A: 0.585 OD

Q: What about the “ELISA OD” value [16] of the same binder?
A: 3.46 OD

Q: And the “ELISA OD” value [17]?
A: 3.58 OD

Q: And the EC50 [28]?
A: 30 ng/mL

Q: What about the OD450 [18] of the same binder?
A: 2.19 OD450

Q: And the OD450 [19]?
A: 0.833 OD450

Q: And the EC50 [20]?
A: 0.189 ng/mL

Q: What about the OD450 [22] of the same binder?
A: 0.482 OD450

Q: What about the “ELISA OD” value [23] of the same binder?
A: 3.29 OD

Q: And the “ELISA OD” value [24]?
A: 3.43 OD

Q: And the OD450 [25]?
A: 0.092 OD450

Q: And the OD450 [26]?
A: 2.1 OD450

Q: What about the “ELISA OD” value [27] of the same binder?
A: 2.48 OD
